Drawing on US20210253679A1 (NATIONAL RESEARCH COUNCIL OF CANADA, published 2021), this text covers binding result and Kd for 20 molecules.

Where a chain is given by its changes, count along the chain named.

One may read the Kd as the equilibrium constant for the complex coming apart.

To fix the notation:
B1: Rh46-H4 (VHH)
VHH: QVQLVESGGGLVQPGGSLRLSCAASTRTFSSYIMGWFRQAPGKERELVAAISWSGRMTHYADSVKGRFTISRDNSKNTLYLQMNSLRAEDTAIYSCAADRTTAWGAPRSQYDSWGQGTLVTVSS
B2: Rh46-H1 (VHH)
VHH: B1 VHH with Q1E, E44G, R45L, A49S, I93V, S95Y
B3: Rh46-H3 (VHH)
VHH: B1 VHH with I93V, S95Y
B4: Rh46-H5 (VHH)
VHH: B1 VHH with S75A, L79V
B5: M75-H4 (VHH)
VHH: QVQLVESGGGLVQPGGSLRLSCAASGRTFDNYVMAWFRQAPGKEREFVASISGSGSITNYANSVKDRFTISRDSSKNALYLQMNSLRAEDTAVYYCAAGSRRTYYREPKFYPSWGQGTLVTVSS
B6: M75-H2 (VHH)
VHH: B5 VHH with Q1E, A49S, S74N, A78T
B7: M75-H3 (VHH)
VHH: B5 VHH with S74N, A78T
B8: M75-H1 (VHH)
VHH: B5 VHH with Q1E, E44G, R45L, A49S, S74N, A78T
B9: M75-H5 (VHH)
VHH: B5 VHH with S75A, L79I
B10: H18-H4 (VHH)
VHH: QVQLVESGGGLVQPGGSLRLSCAASGSIESINRMAWYRQAPGQQREFVARISKGGSTNYPDSVKGRFTISRDNSKNTLYLQMNSLRAEDTAVYYCAAGPVWEQFWGQGTLVTVSS
B11: H18-H1 (VHH)
VHH: B10 VHH with Q1E, Q43K, Q44G, R45L, A49S
B12: H18-H3 (VHH)
VHH: B10 VHH with Q43K
B13: H18-H5 (VHH)
VHH: B10 VHH with S74A, L78V
B14: Rh34-H4 (VHH)
VHH: QVQLVESGGGLVQPGGSLRLSCAASGRTISLYAVGWFRRAPGKEREFVAAISWTDSSTYYADSVKGRFTISRDNSKNTLYLQMNSLRAEDTAVYYCAADVSIRGLQKYEYDYWGQGTLVTVSS
B15: Rh34-H3 (VHH)
VHH: B14 VHH with R39Q
B16: Rh34-H1 (VHH)
VHH: B14 VHH with Q1E, R39Q, E44G, R45L, A49S
B17: Rh34-H2 (VHH)
VHH: EVQLVESGGGLVQPGGSLRLSCAASGRTISLYAVGWFRQAPGKEREFVSAISWTDSSTYYADSVKGRFTISRDNSKNTLYLQMNSLRAEDTAVYYCAADVSIRGLQKYEYDYWGQGTLVTVS
B18: Rh34-H5 (VHH)
VHH: B17 VHH with E1Q, Q39R, S49A, S75A, L79V
B19: R11-H1 (VHH)
VHH: EVQLVESGGGLVQPGGSLRLSCAASGFLLRSNTMGWYRQAPGKGLELVSFIRPSGLTNYNDAVQGRFTISRDNSKNTLYLQMNSLRAEDTAVYYCATRPPFQRDSWGQGTLVTVSS
B20: R11-H2 (VHH)
VHH: B19 VHH with A96H

One assay addresses T1, rat serum albumin (rat, UniProt P02770 25-608).
T1 construct: also called RSA
The assay is described as follows: SPR, single cycle kinetics, pH 7.4. Background: Surface plasmon resonance follows binding to a sensor surface in real time, without labels.
Take B1: the binding result is listed as “no binding”.
In the case of B2, the binding result is “no binding”.
Take B3: the binding result is “no binding”.
As to B4, the binding result is recorded as “no binding”.
Molecule B5 yielded a dissociation constant (Kd) of 377 nM.
In the case of B6, the Kd was determined as 2490 nM.
Same read-out and setting: with B7 the figure was 1260 nM; with B8, 659 nM; with B9, 62.4 nM.
Regarding B10, the binding result is given as “no binding”.
As to B11, the binding result is “no binding”.
On the same count and under the same terms, in the case of B12 it was “no binding”.
On the same count and under the same terms, in the case of B13 it was “no binding”; in that of B14, “no binding”.
The same measure, in the same setting: in the case of B15 it was “no binding”; in that of B16, “no binding”; in that of B17, “no binding”.
For B18, the binding result was “no binding”.
Consider B19, for which the binding result is on record as “no binding”.
Same read-out and setting: with B20 the entry was “no binding”.

A further assay addresses T2, rhesus serum albumin (rhesus, UniProt Q28522 17-600).
T2 construct: also called RhSA
The assay is described as follows: SPR, single cycle kinetics, pH 7.4.
In the case of B1, the affinity, expressed as Kd, was 405 nM.
In the case of B2, the dissociation constant (Kd) was 707 nM.
Same read-out and setting: in the case of B3 it was 415 nM; in that of B4, 343 nM.
Same read-out and setting: in the case of B5 it was 6.7 nM; in that of B6, 63.6 nM; in that of B7, 17.7 nM.
Same read-out and setting: in the case of B8 it was 6.1 nM; in that of B9, 4.6 nM.
As to B10, the Kd was found to be 34.4 nM.
Consider B11, for which the Kd was 91.5 nM.
B12 showed a dissociation constant Kd of 38.2 nM.
Same read-out and setting: with B13 the figure was 91.7 nM.
On the same count and under the same terms, with B14 the figure was 739 nM; with B15, 1260 nM.
Molecule B16 had a dissociation constant Kd of 1350 nM.
Same read-out and setting: with B17 the figure was 1470 nM; with B18, 589 nM.
For B19, the binding result was “no binding”.
As for B20, the binding result is “no binding”.

Another assay concerns the target T3, human serum albumin (human, UniProt P02768 25-609).
T3 construct: also called HSA
In words: SPR, single cycle kinetics, pH 7.4.
B1 registered a Kd of 237 nM.
B2 came in with a Kd of 583 nM.
On to B3, for which the Kd was 289 nM.
As to B4, the Kd worked out at 233 nM.
Turning to B5, the Kd worked out at 2.8 nM.
In the case of B6, binding was put at a Kd of 7.8 nM.
The molecule B7 came in with an equilibrium dissociation constant (Kd) of 4.8 nM.
B8 yielded a Kd of 3.2 nM.
Regarding B9, the Kd was 2.1 nM.
Still for that read-out and setting: with B10 the figure was 58.6 nM; with B11, 52.8 nM.
The molecule B12 registered a Kd of 19.1 nM.
Same read-out and setting: with B13 the figure was 59.4 nM; with B14, 647 nM; with B15, 1370 nM.
B16 showed a dissociation constant Kd of 824 nM.
On the same count and under the same terms, in the case of B17 it was 1330 nM.
B18 yielded a Kd of 410 nM.
Consider B20, for which the binding result is “no binding”.

In the next assay the target is T2, rhesus serum albumin. The assay is described as follows: SPR, single cycle kinetics, pH 5.5.
B1 gave a Kd of 25.2 nM.
B2 had a Kd of 40.8 nM.
Molecule B3 registered a dissociation constant Kd of 34 nM.
B4 showed a Kd of 24.1 nM.
On the same count and under the same terms, with B10 the figure was 72.7 nM; with B11, 92.2 nM.
In turn, B12 had an equilibrium dissociation constant (Kd) of 57.6 nM.
Molecule B13 registered a dissociation constant Kd of 70.7 nM.
The same measure, in the same setting: with B14 the figure was 2250 nM; with B15, 1810 nM.
B16 returned a Kd of 1920 nM.
On the same count and under the same terms, in the case of B17 it was 3080 nM; in that of B18, 1420 nM.

A further assay has as its target T3, human serum albumin. The assay is described as follows: SPR, single cycle kinetics, pH 5.5.
As to B1, the Kd was determined as 51.5 nM.
The same measure, in the same setting: with B2 the figure was 97.7 nM; with B3, 70.3 nM; with B4, 54.9 nM.
On to B10, for which binding was put at a Kd of 57.1 nM.
The same measure, in the same setting: with B11 the figure was 56.3 nM; with B12, 22.3 nM; with B13, 46.6 nM.
In turn, B14 returned a Kd of 974 nM.
On to B15, for which the Kd was 2310 nM.
Same read-out and setting: in the case of B16 it was 1560 nM; in that of B17, 2320 nM.
In the case of B18, the dissociation constant (Kd) came to 524 nM.
